Here are results for five substances from PMC1634882.

Experiment [1] addresses Omp85 from Escherichia coli, refolded in vitro from inclusion bodies (E. coli) (UniProt P0A940).
The target in experiment [2] is PorA in cell envelopes of N. meningitidis strain HB-1 (N. meningitidis (endogenous in HB-1)) (UniProt E6MZM0). The experiment is described as follows: semi-native SDS-PAGE; cell envelopes of N. meningitidis HB-1 or of E. coli expressing PorA or PorA-Q, samples not boiled, blot probed with anti-PorA antibody MN5C11G.
The target in experiment [3] is Omp85 from Escherichia coli, refolded in vitro from inclusion bodies (E. coli) (UniProt P0A940). This is another data set of the same source.
Experiment [4] concerns the target PorA-Q mutant protein (penultimate Lys of PorA substituted by Gln) expressed in E. coli (N. meningitidis) (UniProt E6MZM0). Briefly: semi-native SDS-PAGE; cell envelopes of N. meningitidis HB-1 or of E. coli expressing PorA or PorA-Q, samples not boiled, blot probed with anti-PorA antibody MN5C11G.

As for “denatured E. coli PhoE porin (from UniProt P02932 22-351) (natural protein)”, in experiment [1], the increase in conductivity per 0.12-nS Omp85 channel in planar lipid bilayers (voltage ramps); dose-dependent opening at pM concentrations of denatured PhoE, value at 80 pM was determined as 0.067 nS and the percent increase in conductivity per 0.12-nS Omp85 channel upon addition of 80 pM denatured PhoE lay within 56 to 58%.
In experiment [1], “maltoporin LamB from E. coli, denatured (from UniProt P02943 26-446) (natural protein)” displayed an increase in conductivity per 0.12-nS Omp85 channel in planar lipid bilayers (voltage ramps) upon addition of 80 pM denatured LamB of 0.069 nS and a percent increase in conductivity per 0.12-nS Omp85 channel upon addition of 80 pM denatured LamB of 56 to 58%.
With “PorA in cell envelopes of N. meningitidis strain HB-1 (from UniProt E6MZM0 20-331) (natural protein)”, the stoichiometry N (in general, a count of units in the complex or per binding partner) in experiment [2] was 3.
As to “synthetic peptide corresponding to the C-terminal 12 amino acid residues of PhoE (CterPhoE)”, the increase in conductivity per 0.12-nS Omp85 channel in planar lipid bilayers; dose-dependent opening at μM concentrations of the peptide, value at 96 μM in experiment [3] is 0.6 nS.
“PorA-Q mutant protein (penultimate Lys of PorA substituted by Gln) expressed in E. coli (from UniProt E6MZM0 20-331) (natural protein)” registered a stoichiometry N in experiment [4] of 3.
